Article doi:10.1101/2023.11.15.567215 (bioRxiv, 2023)

Molecular target: the molecule itself
Test: cross-linking

B1: Mtb LexA (LexA of Mycobacterium tuberculosis), wild type (natural protein)
chain: MNDSNDTSVAGGAAGADSRVLSADSALTERQRTILDVIRASVTSRGYPPSIREIGDAVGLTSTSSVAHQLRTLERKGYLRRDPNRPRAVNVRGADDAALPPVTEVAGSDALPEPTFVPVLGRIAAGGPILAEEAVEDVFPLPRELVGEGTLFLLKVIGDSMVEAAICDGDWVVVRQQNVADNGDIVAAMIDGEATVKTFKRAGGQVWLMPHNPAFDPIPGNDATVLGKVVTVIRKV
stoichiometry N: 2
